These are literature values, as cited in patent US20250304973.

The data set addresses alpha-thrombin (native) (Homo sapiens) (UniProt P00734+P00734). Particulars: CITED; linker not given.

In general, Kd refers to the constant that tells how readily two partners part at equilibrium. For HD1-22 bivalent (HD1 linked to HD22), the dissociation constant (Kd) was 0.65 nM.
